Source: PMC5608758, “A brain-targeting lipidated peptide for neutralizing RNA-mediated toxicity in Polyglutamine Diseases” (Scientific Reports, 2017)
Entries after “also recorded” stand apart in the source; their conditions may differ. Values belong to the compound of their own block, whether it stands above or below them. Non-standard residues stand in square brackets, D forms with d. Residues, ends and D or L forms follow the SMILES beside them. hArg = N=C(N)NCCCC[C@H](N)C(=O)O; Orn = NCCC[C@H](N)C(=O)O

How the values were obtained:
expanded MJD CAG78 RNA = experiment: Isothermal titration calorimetry binding assay, expanded CAG RNA; settings: ITC, 25 °C, 20 mM MOPS pH 7.0, 300 mM NaCl; 0.7 mM peptide titrated into 0.5 µM MJD CAG78 RNA; one binding site model; mean ± S.E.M., at least 3 independent experiments
Protocol: Experiments were carried out using a MicroCal iTC200 isothermal titration calorimeter (GE Healthcare) at 25 °C. Data were analyzed using the Origin® scientific plotting software version 7 (Microcal Software Inc.). All RNAs and peptides were dissolved in binding buffer (20 mM MOPS, pH 7.0; 300 mM NaCl) and 0.7 mM of peptide was titrated into 0.5 µM of RNA for each experiment. The concentration of RNA was estimated with appropriate extinction coefficients at 260 nm on a Nanodrop 2000 (Thermo Scientific). A reference power of 8 μcal/s was used with an initial 0.5 µl of injection of peptide followed by 2 µl for all subsequent titrations points with a 60 sec initial equilibrium delay and 150 sec pause between injections. The samples were stirred at a speed of 1000 rpm throughout the experiment. The thermal titration data were fitted to the ‘one binding site model’ to determine the dissociation constant (KD). Each experiment was repeated at least 3 times with consistent results obtained.

P3V8 = experiment: ITC; settings: ITC (MicroCal iTC200): 20 mM MOPS pH 7.0, 300 mM NaCl, 25 C; 0.7 mM peptide titrated into 0.5 uM RNA; one-site model; errors are SEM, n>=3
P3MT3 = experiment: ITC; settings: ITC (MicroCal iTC200): 20 mM MOPS pH 7.0, 300 mM NaCl, 25 C; 0.7 mM peptide titrated into 0.5 uM RNA; one-site model; errors are SEM, n>=3
P3V5 = experiment: ITC; settings: ITC (MicroCal iTC200): 20 mM MOPS pH 7.0, 300 mM NaCl, 25 C; 0.7 mM peptide titrated into 0.5 uM RNA; one-site model; errors are SEM, n>=3
P3MT5 = experiment: ITC; settings: ITC (MicroCal iTC200): 20 mM MOPS pH 7.0, 300 mM NaCl, 25 C; 0.7 mM peptide titrated into 0.5 uM RNA; one-site model; errors are SEM, n>=3
P3V2 = experiment: ITC; settings: ITC (MicroCal iTC200): 20 mM MOPS pH 7.0, 300 mM NaCl, 25 C; 0.7 mM peptide titrated into 0.5 uM RNA; one-site model; errors are SEM, n>=3
P3V7 = experiment: ITC; settings: ITC (MicroCal iTC200): 20 mM MOPS pH 7.0, 300 mM NaCl, 25 C; 0.7 mM peptide titrated into 0.5 uM RNA; one-site model; errors are SEM, n>=3
P3MT4 = experiment: ITC; settings: ITC (MicroCal iTC200): 20 mM MOPS pH 7.0, 300 mM NaCl, 25 C; 0.7 mM peptide titrated into 0.5 uM RNA; one-site model; errors are SEM, n>=3
P3V9 = experiment: ITC; settings: ITC (MicroCal iTC200): 20 mM MOPS pH 7.0, 300 mM NaCl, 25 C; 0.7 mM peptide titrated into 0.5 uM RNA; one-site model; errors are SEM, n>=3
P3V3 = experiment: ITC; settings: ITC (MicroCal iTC200): 20 mM MOPS pH 7.0, 300 mM NaCl, 25 C; 0.7 mM peptide titrated into 0.5 uM RNA; one-site model; errors are SEM, n>=3
P3MT1 = experiment: ITC; settings: ITC (MicroCal iTC200): 20 mM MOPS pH 7.0, 300 mM NaCl, 25 C; 0.7 mM peptide titrated into 0.5 uM RNA; one-site model; errors are SEM, n>=3
P3MT2 = experiment: ITC; settings: ITC (MicroCal iTC200): 20 mM MOPS pH 7.0, 300 mM NaCl, 25 C; 0.7 mM peptide titrated into 0.5 uM RNA; one-site model; errors are SEM, n>=3
P3V4 = experiment: ITC; settings: ITC (MicroCal iTC200): 20 mM MOPS pH 7.0, 300 mM NaCl, 25 C; 0.7 mM peptide titrated into 0.5 uM RNA; one-site model; errors are SEM, n>=3
P3V6 = experiment: ITC; settings: ITC (MicroCal iTC200): 20 mM MOPS pH 7.0, 300 mM NaCl, 25 C; 0.7 mM peptide titrated into 0.5 uM RNA; one-site model; errors are SEM, n>=3
P3 (P3WT) = experiment: ITC; settings: ITC (MicroCal iTC200): 20 mM MOPS pH 7.0, 300 mM NaCl, 25 C; 0.7 mM peptide titrated into 0.5 uM RNA; one-site model; errors are SEM, n>=3
P3V1 = experiment: ITC; settings: ITC (MicroCal iTC200): 20 mM MOPS pH 7.0, 300 mM NaCl, 25 C; 0.7 mM peptide titrated into 0.5 uM RNA; one-site model; errors are SEM, n>=3

Compound: Ac-DGKSKGIAYIEFKDGKSKGIAYIEFK-NH2 [P3V20]
KD (expanded MJD CAG78 RNA): No binding; also recorded: did not show any binding

Compound: Ac-DGKSKGIAYIEFKGDGKSKGIAYIEFK-NH2 [P3V21]
KD (expanded MJD CAG78 RNA): No binding; also recorded: did not show any binding

Compound: Ac-DGRSRGIAYIEFK-NH2 [P3V9]
Kd (expanded MJD CAG78 RNA): 2.34 ± 0.49 µM

Compound: MJD CAA/G78 RNA (expanded, interrupted)
Kd (P3V8): 2.94 µM

Compound: MJD CAG27 RNA (unexpanded)
Kd (P3V8): 2.19 µM

Compound: MJD CAG78 RNA (expanded)
Kd (P3MT3): 16.6 µM | Kd (P3V5): 0.86 µM | Kd (P3MT5): 51.3 µM | Kd (P3V2): 2.21 µM | Kd (P3V7): 3.67 µM | Kd (P3MT4): 17.4 µM | Kd (P3V8): 0.33 µM | Kd (P3V9): 2.34 µM | Kd (P3V3): 1.74 µM | Kd (P3MT1): 31.3 µM | Kd (P3MT2): 101 µM | Kd (P3V4): 4.44 µM | Kd (P3V6): 23.8 µM | Kd (P3 (P3WT)): 8.37 µM | Kd (P3V1): 2 µM

Second part, the compound after the results:

KD (expanded MJD CAG78 RNA): No binding
Compound: CC[C@H](C)[C@H](NC(=O)CNC(=O)[C@H](CCCCN)NC(=O)[C@H](CO)NC(=O)[C@H](CCCCNC(=N)N)NC(=O)CNC(=O)[C@H](CC(=O)O)NC(C)=O)C(=O)N[C@@H](C)C(=O)N[C@@H](Cc1ccc(O)cc1)C(=O)N[C@H](C(=O)N[C@@H](CCC(=O)O)C(=O)N[C@@H](Cc1ccccc1)C(=O)N[C@@H](CCCCN)C(N)=O)[C@@H](C)CC [P3V14] (Ac-DG[hArg]SKGIAYIEFK-NH2)

KD (expanded MJD CAG78 RNA): No binding
Compound: CC[C@H](C)[C@H](NC(=O)CNC(=O)[C@H](CCCCNC(=N)N)NC(=O)[C@H](CO)NC(=O)[C@H](CCCCN)NC(=O)CNC(=O)[C@H](CC(=O)O)NC(C)=O)C(=O)N[C@@H](C)C(=O)N[C@@H](Cc1ccc(O)cc1)C(=O)N[C@H](C(=O)N[C@@H](CCC(=O)O)C(=O)N[C@@H](Cc1ccccc1)C(=O)N[C@@H](CCCCN)C(N)=O)[C@@H](C)CC [P3V15] (Ac-DGKS[hArg]GIAYIEFK-NH2)

KD (expanded MJD CAG78 RNA): No binding
Compound: CC[C@H](C)[C@H](NC(=O)CNC(=O)[C@H](CCCCN)NC(=O)[C@H](CO)NC(=O)[C@H](CCCN)NC(=O)CNC(=O)[C@H](CC(=O)O)NC(C)=O)C(=O)N[C@@H](C)C(=O)N[C@@H](Cc1ccc(O)cc1)C(=O)N[C@H](C(=O)N[C@@H](CCC(=O)O)C(=O)N[C@@H](Cc1ccccc1)C(=O)N[C@@H](CCCCN)C(N)=O)[C@@H](C)CC [P3V16] (Ac-DG[Orn]SKGIAYIEFK-NH2)

KD (expanded MJD CAG78 RNA): No binding
Compound: CC[C@H](C)[C@H](NC(=O)CNC(=O)[C@H](CCCN)NC(=O)[C@H](CO)NC(=O)[C@H](CCCCN)NC(=O)CNC(=O)[C@H](CC(=O)O)NC(C)=O)C(=O)N[C@@H](C)C(=O)N[C@@H](Cc1ccc(O)cc1)C(=O)N[C@H](C(=O)N[C@@H](CCC(=O)O)C(=O)N[C@@H](Cc1ccccc1)C(=O)N[C@@H](CCCCN)C(N)=O)[C@@H](C)CC [P3V17] (Ac-DGKS[Orn]GIAYIEFK-NH2)
